Values of other authors as cited in article PMC8980424.

Columns and labels:
IFNAR2 (Homo sapiens) = IFNAR2 (Homo sapiens) (UniProt P48551)
IFNAR1 (Homo sapiens) = IFNAR1 (Homo sapiens) (UniProt P17181)
IFNAR2 (Mus musculus) = IFNAR2 (Mus musculus) (UniProt O35664)
IFNAR1 (Mus musculus) = IFNAR1 (Mus musculus) (UniProt P33896)
Chain of UniProt P33896 (P33896 27-429): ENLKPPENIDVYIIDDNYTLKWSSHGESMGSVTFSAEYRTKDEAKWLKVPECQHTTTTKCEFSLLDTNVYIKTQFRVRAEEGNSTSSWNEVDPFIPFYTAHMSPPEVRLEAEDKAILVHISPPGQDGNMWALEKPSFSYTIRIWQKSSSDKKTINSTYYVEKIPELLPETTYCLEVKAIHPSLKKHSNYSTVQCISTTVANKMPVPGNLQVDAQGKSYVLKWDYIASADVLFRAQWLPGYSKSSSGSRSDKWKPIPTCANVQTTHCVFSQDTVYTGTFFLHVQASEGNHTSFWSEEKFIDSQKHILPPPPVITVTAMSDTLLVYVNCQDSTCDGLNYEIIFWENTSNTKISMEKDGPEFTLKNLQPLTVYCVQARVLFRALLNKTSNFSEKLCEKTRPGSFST

Chain of UniProt P48551 (P48551 27-243): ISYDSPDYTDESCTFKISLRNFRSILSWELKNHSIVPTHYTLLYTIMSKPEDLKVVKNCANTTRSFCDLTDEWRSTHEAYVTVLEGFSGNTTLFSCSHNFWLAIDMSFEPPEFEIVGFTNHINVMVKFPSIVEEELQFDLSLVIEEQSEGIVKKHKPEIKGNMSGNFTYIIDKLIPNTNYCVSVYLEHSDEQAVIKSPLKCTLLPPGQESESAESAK
Chain of UniProt P17181 (P17181 28-436): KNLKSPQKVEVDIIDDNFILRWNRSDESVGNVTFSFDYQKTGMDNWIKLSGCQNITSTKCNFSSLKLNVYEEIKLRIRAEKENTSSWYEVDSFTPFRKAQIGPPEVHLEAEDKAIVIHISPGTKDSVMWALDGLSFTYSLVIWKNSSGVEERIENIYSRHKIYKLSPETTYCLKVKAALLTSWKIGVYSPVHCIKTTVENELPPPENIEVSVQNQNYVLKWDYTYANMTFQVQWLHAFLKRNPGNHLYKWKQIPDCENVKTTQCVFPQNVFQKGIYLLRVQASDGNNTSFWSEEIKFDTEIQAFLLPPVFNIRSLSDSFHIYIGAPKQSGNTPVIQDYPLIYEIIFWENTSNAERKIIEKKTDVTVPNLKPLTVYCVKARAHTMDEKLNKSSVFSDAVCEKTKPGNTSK
Chain of UniProt O35664 (O35664 22-242): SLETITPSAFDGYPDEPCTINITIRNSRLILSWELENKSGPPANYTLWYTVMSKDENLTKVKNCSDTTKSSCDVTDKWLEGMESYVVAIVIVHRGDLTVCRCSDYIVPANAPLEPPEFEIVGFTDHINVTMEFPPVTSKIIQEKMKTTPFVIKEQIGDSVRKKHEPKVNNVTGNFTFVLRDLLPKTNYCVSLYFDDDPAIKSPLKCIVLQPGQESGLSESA

For Interferon beta (from UniProt P01574), the Kd (IFNAR2 (Homo sapiens)) is given as 0.1 nM and the Kd (IFNAR1 (Homo sapiens)) is given as 30 nM.
In the case of Interferon beta (from UniProt P01575), the Kd (IFNAR2 (Mus musculus)) is given as 1700 nM and the Kd (IFNAR1 (Mus musculus)) is given as 10 nM.
